# Data as given in US20250019740.
# Read-outs that look alike come from different tables or passages of the source.
# B1: TEV-EAV, triple mutant TEV variant (G79E, T173A, S219V) (protein)
# chain: GESLFKGPRDYNPISSTICHLTNESDGHTTSLYGIGFGPFIITNKHLFRRNNGTLLVQSLHGVFKVKNTTTLQQHLIDERDMIIIRMPKDFPPFPQKLKFREPQREERICLVTNFQTKSMSSMVSDTSCTFPSSDGIFWKHWIQTKDGQCGSPLVSTRDGFIVGIHSASNFANTNNYFTSVPKNFMELLTNQEAQQWVSGWRLNADSVLWGGHKVFMVKPEEPFQPVKEATQLM
# B2: enhanced TEV "eTEV" mutant TEV protease (S3I, P8Q, S31T, E79G, T173A, S219R, A231V) (protein)
# chain: ILFKGQRDYNPISSTICHLTNESDGHTTTLYGIGFGPFIITNKHLFRRNNGTLLVQSLHGVFKVKNTTTLQQHLIDGRDMIIIRMPKDFPPFPQKLKFREPQREERICLVTTNFQTKSMSSMVSDTSCTFPSSDGIFWKHWIQTKDGQCGSPLVSTRDGFIVGIHSASNFANTNNYFTSVPKNFMELLTNQEAQQWVSGWRLNADSVLWGGHKVFMRKPEEPFQPVKEVTQLMRRRRR
# Legend:
# [1] = system: synthetic substrate peptide […]
# [2] = system: MBP-ENLYFQS-GST fusion protein
# [3] = biological target: synthetic substrate peptide […]; remark: listed apart in the source
molecule,measurement,setting,value
"TEV variant E1 (Q74L, S200N on the TEV-EAV template)",activity on the peptide in vitro,[1],six selected clones showed higher activity on the peptide […] (SEQ ID NO:33) compared to TEV-EAV
"TEV variant E2 (S3I, P8Q, S31T, A231V on the TEV-EAV template)",activity on the peptide in vitro,[1],six selected clones showed higher activity on the peptide […] (SEQ ID NO:33) compared to TEV-EAV
"TEV variant E5 (K6M, S15L on the TEV-EAV template)",activity on the peptide in vitro,[1],six selected clones showed higher activity on the peptide […] (SEQ ID NO:33) compared to TEV-EAV
"TEV variant S6 (E79S, A173G, V219S on the TEV-EAV template)",activity on the peptide in vitro,[1],six selected clones showed higher activity on the peptide […] (SEQ ID NO:33) compared to TEV-EAV
"TEV variant S7 (E79G, S219R on the TEV-EAV template)",activity on the peptide in vitro,[1],six selected clones showed higher activity on the peptide […] (SEQ ID NO:33) compared to TEV-EAV
"TEV variant S8 (A173D, V219K on the TEV-EAV template)",activity on the peptide in vitro,[1],six selected clones showed higher activity on the peptide […] (SEQ ID NO:33) compared to TEV-EAV
TEV-S219P,percent of fusion protein digested in 40 minutes at 30° C. at a 1:100 ratio,[2],compared to ˜68% for TEV-EAV and TEV-S219P
uTEV3,KM,[1],the improved catalytic efficiency in uTEV3 appears to be mainly due to a significant KM decrease
same,percent of fusion cleaved after 30 mins at a 1:200 protease to substrate ratio,[2],compared to only 30% cleavage with uTEV3
B1,KM,[3],KM of eTEV remained unchanged at 65 µM with that of TEV-EAV
same,turnover rate (kcat),[3],the turnover rate (kcat) was improved from 0.17 s^-1 to 0.41 s^-1
B2,KM,[3],KM of eTEV remained unchanged at 65 µM with that of TEV-EAV
same,fold decreased KM compared to TEV-S219P,[3],2.77-fold decreased KM
same,fold improvement in catalytic efficiency (kcat/KM) compared to TEV-EAV,[3],2-fold improvement in catalytic efficiency (kcat/KM) compared to TEV-EAV
same,fold increase in catalytic efficiency relative to the parent TEV-S219P,[3],~8-fold overall increase in catalytic efficiency relative to the parent TEV-S219P
same,fold increased catalytic turnover rate (kcat) compared to TEV-S219P,[3],2.73-fold increased catalytic turnover rate (kcat)
same,turnover rate (kcat),[3],the turnover rate (kcat) was improved from 0.17 s^-1 to 0.41 s^-1
